Source: the supplement of paper PMC7877785
± gives the uncertainty stated by the source.

Test: self-splicing fitness, log relative to wild type (ln ratio); higher = more splicing; Tetrahymena group I intron in knt gene, E. coli kanamycin selection, DiMSum; sequences stand for … in CUCUCU…GGAGGGAAAAGUUAUCAGGCAUGCACCUGGUAGCUAGUCUUUAAACCAAUAGAUUGCAUCGGUUUAAAAGGCAAGACCGUCAAAUUGCGGGAAAGGGGUCAACAGCCGUUCAGUACCAAGUCUCAGGGGAAACUUUGAGAUGGCCUUGCAAAGGGUAUGGUAAUAAGCUGACGGACAUGGUCCUAACCACGCAGCCAAGUCCUAAGUCAACAGAUCUUCUGUUGAUAUGGAUGCAGUUCACAGACUAAAUGUCGGUCGGGGAAGAUGUAUUCUUCUCAUAAGAUAUAGUCGGACCUCUCCUUAAUGGGAGCUAGCGGAUGAAGUGAUGCAACACUGGAGCCGCUGGGAACUAAUUUGUAUGCGAAAGUAUAUUGAUUAGUUUUGGAGUACUCGUGGUCG
In short: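 Pooled colonies went to amplicon sequencing on an Illumina HiSeq 2500 after six replicate transformations. The plates were LB agar with 100 μg/mL carbenicillin, 50 μM IPTG and 0.2% rhamnose, with or without 25 μg/mL kanamycin, incubated overnight at 37°C or 30°C. The E. coli BL21(DE3) library had all eight P1ex-region intron nucleotides randomised, the intron placed in the knt kanamycin-resistance gene on pET-22b(+). DiMSum fitness is the error-weighted combination of replicate fold changes, kanamycin against none, normalised to wild type.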

Row | Sequence | self-splicing fitness (ln) (30 °C) | self-splicing fitness (ln) (37 °C)
1 | GAUCAGCAAUAUUACGACGA | -0.224 ± 0.13 | 0.262 ± 0.14
2 | GAUCAGCAAUAUUACGAUGG | -1.22 ± 0.096 | 0.121 ± 0.14
3 | GAUCAGCAAUAUUACGCACG | -0.77 ± 0.076 | 0.0829 ± 0.077
4 | GAUCAGCAAUAUUACGCAUU | -2.36 ± 0.26 | -1.05 ± 0.32
5 | GAUCAGCAAUAUUACGCCAU | -3.36 ± 0.3 | -1.33 ± 0.19
6 | GAUCAGCAAUAUUACGCCCG | -0.808 ± 0.25 | -0.447 ± 0.21
7 | GAUCAGCAAUAUUACGCGCU | -1.86 ± 0.12 | -0.35 ± 0.12
8 | GAUCAGCAAUAUUACGCUUA | -0.551 ± 0.12 | 0.0926 ± 0.13
9 | GAUCAGCAAUAUUACGGAGG | -3.86 ± 0.24 | -1.82 ± 0.15
10 | GAUCAGCAAUAUUACGGCAU | -0.0116 ± 0.068 | 0.0262 ± 0.092
11 | GAUCAGCAAUAUUACGGGAC | -1.51 ± 0.085 | -0.976 ± 0.1
12 | GAUCAGCAAUAUUACGGGGA | -1.61 ± 0.12 | -0.776 ± 0.12
13 | GAUCAGCAAUAUUACGGGGU | -3.13 ± 0.3 | -2.32 ± 0.26
14 | GAUCAGCAAUAUUACGGUGC | -2.03 ± 0.13 | -0.734 ± 0.11
15 | GAUCAGCAAUAUUACGUUGU | -3.48 ± 0.13 | -2.78 ± 0.16
16 | GAUCAGCAAUAUUACGUUUA | -0.394 ± 0.084 | 0.0451 ± 0.095
17 | GAUCAGCAAUAUUACGUUUU | -0.968 ± 0.058 | 0.149 ± 0.08
18 | GAUGAGCAAUAUUACGAACU | -0.431 ± 0.31 | -0.239 ± 0.31
19 | GAUGAGCAAUAUUACGACUC | -1.68 ± 0.14 | -0.273 ± 0.24
20 | GAUGAGCAAUAUUACGAGCU | -3.65 ± 0.26 | -2.11 ± 0.24
21 | GAUGAGCAAUAUUACGAGGU | -2.66 ± 0.32 | -1.99 ± 0.33
22 | GAUGAGCAAUAUUACGAUGC | -1.35 ± 0.086 | -0.41 ± 0.12
23 | GAUGAGCAAUAUUACGCAAC | -2.76 ± 0.21 | -1.85 ± 0.21
24 | GAUGAGCAAUAUUACGCACC | -1.94 ± 0.44 | -1.13 ± 0.31
25 | GAUGAGCAAUAUUACGCAGU | -3.61 ± 0.3 | -2.44 ± 0.33

Row | Sequence | self-splicing fitness (ln) (30 °C) | self-splicing fitness (ln) (37 °C)
26 | GAUGAGCAAUAUUACGCCUU | -1.7 ± 0.24 | –
27 | GAUGAGCAAUAUUACGCGCA | -1.91 ± 0.21 | -1.58 ± 0.19
28 | GAUGAGCAAUAUUACGGAUU | -3.44 ± 0.44 | -1.68 ± 0.2
29 | GAUGAGCAAUAUUACGGCCU | -2.54 ± 0.18 | -1.98 ± 0.23
30 | GAUGAGCAAUAUUACGGUAC | -5.2 ± 0.36 | -2.2 ± 0.33
31 | GAUGAGCAAUAUUACGGUGC | – | -1.53 ± 0.28
32 | GAUGAGCAAUAUUACGUAAC | -1.63 ± 0.12 | -1.9 ± 0.3
33 | GAUGAGCAAUAUUACGUCCU | – | -1.84 ± 0.49
34 | GAUGAGCAAUAUUACGUCGA | -3.33 ± 0.35 | -2.68 ± 0.3
35 | GAUGAGCAAUAUUACGUGCG | -3.79 ± 0.17 | -1.8 ± 0.13
36 | GAUGAGCAAUAUUACGUGUC | -3.53 ± 0.31 | –
37 | GAUGAGCAAUAUUACGUUGU | – | -1.69 ± 0.3
38 | GAUGAGCAAUAUUACGUUUU | -3.82 ± 0.22 | -2.72 ± 0.2
39 | GAUUAGCAAUAUUACGACAA | -0.938 ± 0.17 | -0.154 ± 0.14
40 | GAUUAGCAAUAUUACGACAG | -3.57 ± 0.29 | -1.1 ± 0.23
41 | GAUUAGCAAUAUUACGAGGA | -2.13 ± 0.29 | -2.08 ± 0.31
42 | GAUUAGCAAUAUUACGAGUA | -2.63 ± 0.17 | -0.695 ± 0.13
43 | GAUUAGCAAUAUUACGAUCG | -1.06 ± 0.11 | -0.387 ± 0.12
44 | GAUUAGCAAUAUUACGAUUA | -0.22 ± 0.1 | -0.0882 ± 0.092
45 | GAUUAGCAAUAUUACGCAAG | -2.11 ± 0.14 | -1.3 ± 0.13
46 | GAUUAGCAAUAUUACGCACU | -0.846 ± 0.15 | 0.415 ± 0.18
47 | GAUUAGCAAUAUUACGCCAA | -3.48 ± 0.31 | -1.91 ± 0.25
48 | GAUUAGCAAUAUUACGCCCU | -0.409 ± 0.49 | –
49 | GAUUAGCAAUAUUACGCGAA | -3.47 ± 0.29 | -1.44 ± 0.21
50 | GAUUAGCAAUAUUACGCUAA | -3.24 ± 0.39 | -1.89 ± 0.35
